Measurements: article PMC3499988 (Biochemistry, 2011)
Substitutions are numbered along the chain they refer to. In names and notes the source's numbering stands.

B1: Fab m18 K31A (LCDR1) (Fab, V domains shown)
VH: VQLLESGPGVVKPSETLSLTCTVSGASVNNYYWTWVRQPPGKGLEWIGNVYDSGDTNYNPSLSSRLSLSMDTSKNQFSLRLSSVTAADTATYYCARYHRHFIRGPLSFDYWGRGTLVTVSS
VL: LQMTQSPSFLSASVGDRVSITCRASQDIQAFLAWYQLTPGDAPKLLMYSASTLQSGVPSRFSGSGSGTEFTLTISGLQPEDFATYYCQHLKRYPYTFGQGTKLEIS
B2: Fab m18 F99Y (HCDR3) (Fab, V domains shown)
VH: B1 VH with F101Y
VL: B1 VL with A30K
B3: Fab m18 F99A (HCDR3) (Fab, V domains shown)
VH: B1 VH with F101A
VL: B1 VL with A30K
B4: Fab m18 I100A (HCDR3) (Fab, V domains shown)
VH: B1 VH with I102A
VL: B1 VL with A30K
B5: Fab m18 S52A (LCDR2) (Fab, V domains shown)
VH: B1 VH
VL: B1 VL with A30K, S51A

molecular target: T1, HIV-1 HXBc2 gp120 (HIV-1 (HXBc2), UniProt P04578); test: SPR

Binder	IC50 [nM]
B1	> 500
B2	66.7 ± 6.1
B3	69.5 ± 3.7
B4	> 500
B5	> 360

molecular target: T1, HIV-1 HXBc2 gp120; test: SPR; remark: another data set of the same source

Binder	IC50 [nM]
B1	> 500
B2	62.8 ± 12.3
B3	58.2 ± 4.3
B4	> 500
B5	> 360

molecular target: T2, HIV-1 YU-2 gp120 (HIV-1 (YU-2), UniProt P35961); test: SPR

Binder	IC50 [nM]
B1	> 500
B2	53.7 ± 1.5
B3	> 500
B4	> 500
B5	≥ 500

molecular target: T2, HIV-1 YU-2 gp120; test: SPR; remark: another data set of the same source

Binder	IC50 [nM]
B1	> 500
B2	75.3 ± 20.6
B3	> 500
B4	> 500
B5	> 500

molecular target: T1, HIV-1 HXBc2 gp120; test: SPR; remark: another data set of the same source

Binder	Kd [nM]	koff [s⁻¹]	kon [M⁻¹ s⁻¹]
B1	18.7	0.00031 ± 1.1	17000 ± 0.5
B2	0.9	9.2e-05	100000 ± 0.03
B3	1.3	0.00013 ± 0.1	100000 ± 0.02
B4	2.8	4.6e-05	17000 ± 0.07
B5	0.6	2e-05	35000 ± 2.1

molecular target: T2, HIV-1 YU-2 gp120; test: SPR; remark: another data set of the same source

Binder	binding result
B3	binds

molecular target: T2, HIV-1 YU-2 gp120; test: SPR; remark: another data set of the same source

Binder	Kd [nM]	koff [s⁻¹]	kon [M⁻¹ s⁻¹]
B1	3.1	8.9e-05	29000 ± 0.4
B2	1.1	0.00011 ± 0.9	94000 ± 2.5
B3	5.9	0.00026 ± 1.5	45000 ± 2.5
B4	13.1	0.00036 ± 1.4	27000 ± 1.3
B5	4.7	8.1e-05	17000 ± 0.9
